Experimental data from PMC10746525.

B1: MBP-TRAK1_(342-431) [human] / MIRO1_(177-591) [human] (parent)
chain 1: EAQEELKNLRNKTMPNTTSRRYHSLGLFPMDSLAAEIEGTMRKELQLEEAESPDITHQKRVFETVRNINQVVKQRSLTPSPMNIPGSNQS
chain 2: EEKEMKPACIKALTRIFKISDQDNDGTLNDAELNFFQRICFNTPLAPQALEDVKNVVRKHISDGVADSGLTLKGFLFLHTLFIQRGRHETTWTVLRRFGYDDDLDLTPEYLFPLLKIPPDCTTELNHHAYLFLQSTFDKHDLDRDCALSPDELKDLFKVFPYIPWGPDVNNTVCTNERGWITYQGFLSQWTLTTYLDVQRCLEYLGYLGYSILTEQESQASAVTVTRDKKIDLQKKQTQRNVFRCNVIGVKNCGKSGVLQALLGRNLMRQKKIREDHKSYYAINTVYVYGQEKYLLLHDISESEFLTEAEIICDVVCLVYDVSNPKSFEYCARIFKQHFMDSRIPCLIVAAKSDLHEVKQEYSISPTDFCRKHKMPPPQAFTCNTADAPSKDIFVKLTTMAMYPHVTQADLKSST
B2: MBP-TRAK1_(342-431) [human] / MIRO1_(177-591) [human] (parent)
chain 1: B1 chain 2
chain 2: B1 chain 1

Tests used:
MIRO1_(177-591) [human] [1] = variants of: B1; assay: ITC; conditions: with MIRO1_(177-591) [human]; 370 µM MBP-TRAK1(342-431) 400KR401 to AA in syringe, 30 µM MIRO1(177-591) in cell; ITC buffer with 5 mM EGTA
MIRO1_(177-591) [human] [2] = variants of: B2; assay: ITC; conditions: with MIRO1_(177-591) [human]; 370 µM MIRO1(177-591) in syringe, 35 µM MBP-TRAK1(342-431) 400KR401 to AA in cell; ITC buffer with 5 mM EGTA

Kd (MIRO1_(177-591) [human] [1]) | screen value (MIRO1_(177-591) [human] [1]) | Kd (MIRO1_(177-591) [human] [2]) | screen value (MIRO1_(177-591) [human] [2]) | Variant
9.62 µM | 0.91 | – | – | chain 1 K59A R60A
– | – | 7.52 µM | 0.74 | chain 2 K59A R60A
